Data reported in PMC12413468.
pKd: −log10 of the molar value.

Molecular target: Fluorescent probe peptide NH3+-NLVGRF-[DAP-FAM]-VSPVPE-COO- (human)
Test: fluorescence polarisation

Chain of His6-tagged OSR1 CCT domain (human OSR1 433–527) (O95747 433-527): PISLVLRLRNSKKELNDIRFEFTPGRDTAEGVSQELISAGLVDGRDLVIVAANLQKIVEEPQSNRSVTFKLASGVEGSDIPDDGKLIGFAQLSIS

pKd	fold decrease in peptide probe binding affinity against wild type [fold]	Substance
5.82		His6-tagged OSR1 CCT domain (human OSR1 433–527) (from UniProt O95747 433-527) (domain or fragment)
6.17		His6-tagged SPAK CCT domain (mouse SPAK 459–556) (from UniProt Q9Z1W9 459-556) (domain or fragment)
	50	Purified SPAK CCT domain D477Q (domain or fragment)
